Residue numbers refer to the chain shown, from its start.

B1: lipA_ec (dsDNA)
DNA 1: ACGGAGTAATAGATGTTATCCGTAATGCATTTTGAAAAAGTA
DNA 2: TACTTTTTCAAAATGCATTACGGATAACATCTATTACTCCGT
B2: ybeD_st2 (dsDNA)
DNA 1: CTGTGGCGGGAGTTGTTATTTTTTTTACGTAATGCCGGAGCT
DNA 2: AGCTCCGGCATTACGTAAAAAAAATAACAACTCCCGCCACAG
B3: ybeD_ec (dsDNA)
DNA 1: AAACACTTGAAAGTGTAATTTCCGTCCCCATATACTAAGCAT
DNA 2: ATGCTTAGTATATGGGGACGGAAATTACACTTTCAAGTGTTT
B4: ybeD_kp (dsDNA)
DNA 1: B3 DNA 1 with A1G, A17G, G24A, A38T, G39T
DNA 2: B3 DNA 2 with C4A, T5A, C19T, T26C, T42C
B5: ybeD_es (dsDNA)
DNA 1: B3 DNA 1 with A1G, A17G, G24A, A38G, C40T
DNA 2: B3 DNA 2 with G3A, T5C, C19T, T26C, T42C
B6: ybeD_st1 (dsDNA)
DNA 1: B3 DNA 1 with A1G, A5G, A17G, C22T, A38T
DNA 2: B3 DNA 2 with T5A, G21A, T26C, T38C, T42C
B7: ybeD_yp (dsDNA)
DNA 1: ATTGGCCCCATATTGTGATTAATCTTATATTGCAAATAAGCT
DNA 2: AGCTTATTTGCAATATAAGATTAATCACAATATGGGGCCAAT
B8: lipBA_she (dsDNA)
DNA 1: CAAGGTCATAAAGTGTGATCTATCTTACATTTATGGCCAAGAG
DNA 2: CTCTTGGCCATAAATGTAAGATAGATCACACTTTATGACCTTG
B9: fadD_ec (dsDNA)
DNA 1: GTAAAGATAAAAATAAATAGTGACGCGCTTCGCAACCTTTTCGTTGGG
DNA 2: CCCAACGAAAAGGTTGCGAAGCGCGTCACTATTTATTTTTATCTTTAC

One data set addresses CRP_ec (cAMP receptor protein) (Escherichia coli, UniProt P0ACJ8 1-210). The experiment in a line: EMSA; cAMP (20 pmol); EMSA: 0.2 pmol DIG probe, CRP (2 pmol in Fig. 6), 20 pmol cAMP, Roche binding buffer (composition and pH not given), 20 uL (15 uL in Fig. S2), room temperature. The conditions noted are these: protein: recombinant; tags: His6 (pET28 construct, nickel purified); chain copies: 2; label: DIG-ddUTP 3' end (terminal transferase); blunt. For orientation: A gel shift assay detects complexes by their altered migration in electrophoresis.
Take B1: the binding result was “no binding”.

Regarding B2, the binding result is “no binding”.

As for B3, the binding result is “no binding”.

With B4, the binding result is reported as “binds”.

For the molecule B5, the binding result is listed as “binds”.

As for B6, the binding result is listed as “binds”.

Regarding B7, the binding result was “no binding”.

For the molecule B8, the binding result is “binds”.

With B9, the binding result was “binds”.

Another data set has as its target CRP_she (cAMP receptor protein) (UniProt Q8EJ49 1-211). The description is as above. Conditions: protein: recombinant; tags: N-terminal His6 (pET28a); chain copies: 2; label: DIG-ddUTP 3' end (terminal transferase); blunt.
Turning to B8, the binding result is given as “binds”.

For the molecule B9, the binding result is given as “binds”.
